Measurements: patent US20220298244A1 (BEIJING MABWORKS BIOTECH, published 2022)
Changes are numbered by the printed parent chain. Names and notes keep the numbering of the source.

B1: mouse anti-PD-L1 monoclonal antibody 56E5 (antibody, mouse IgG1, V domains shown)
VH: EVQLQESGPGLAKPSQTLSLTCSVTGYSITSDYWNWIRKFPGNKLEYMGYISYTGSTYYNPSLKSRISITRDTSKNQYYLQLNSVTTEDTATYYCARYRDWDVRAMDYWGQGTSVTVSS
VL: DIVMTQSPSSLTVTAGEKVTMNCKSSQSLLISGNQKNFLTWYQQKPGQPPKLLIYWASTRESGVPDRFTGSGSGTDFTLTISSVQAEDLAVYYCQNDFGFPFTFGSGTKLEIK
notes: Purified from hybridoma; also called Mouse 56E5
B2: mouse anti-PD-L1 monoclonal antibody 3C2 (antibody, mouse IgG1, V domains shown)
VH: QVQLNQSGPELMKAGTSVKISCKASGYSFTDYHVNWVKQRPGQGLEWIGWIFPGSGRTFYTDKFKGKATLTVDLSFTTAYIMLNSLTSEDSAVYFCATDYGTSGYGLVYWGQGTSVTVSS
VL: DIQMTQSSSYLSVSLGGRVTISCKASDRINNWLAWYQQKPGNAPRLLISGATSLETGVPSRFSGSGSGKDYTLSITSLQTEDVAVYYCQQYWNIPFTFGSGTKLEIK
notes: Purified from hybridoma; also called Mouse 3C2
B3: 56E5VH2VL4 (antibody, human IgG1, kappa, N297A, V domains shown)
VH: QVQLQESGPGLVKPSQTLSLTCTVSGGSITSDYWNWIRQHPGKGLEYMGYISYTGSTYYNPSLKSRVTITVDTSKNQFSLKLSSVTTADTAVYYCARYRDWDVRAMDYWGQGTTVTVSS
VL: DIVMTQSPDSLAVSLGEKVTMNCKSSQSLLISGNQKNFLTWYQQKPGQPPKLLIYWASTRESGVPDRFSGSGSGTDFTLTISSLQAEDLAVYYCQNDFGFPFTFGQGTKVEIKR
notes: humanized 56E5 antibody
B4: humanized antibody 56E5-VH5VL4 (antibody, human IgG1, kappa, N297A, V domains shown)
VH: B3 VH with K43N, G44K, V67I, T68S, V71R
VL: B3 VL
notes: Human IgG1(N297A)/kappa
B5: 56E5VH4VL4 (antibody, human IgG1, kappa, N297A, V domains shown)
VH: B3 VH with K43N, G44K, V71R
VL: B3 VL
notes: humanized 56E5 antibody
B6: 56E5VH3VL4 (antibody, human IgG1, kappa, N297A, V domains shown)
VH: B3 VH with K43N, G44K
VL: B3 VL
notes: humanized 56E5 antibody
B7: humanized antibody 3C2-VH4VL4 (antibody, human IgG1, kappa, N297A, V domains shown)
VH: QVQLVQSGAEVKKPGASVKVSCKASGYSFTDYHVNWVKQRPGQGLEWIGWIFPGSGRTFYTDKFKGRVTLTVDTSTSTVYMELSSLTSEDTAVYFCATDYGTSGYGLVYWGQGTTVTVSS
VL: DIQMTQSPSSLSASVGDRVTISCKASDRINNWLAWYQQKPGNAPRLLISGATSLETGVPSRFSGSGSGTDYTFTISSLQPEDIAVYYCQQYWNIPFTFGQGTKVEIKR
notes: Human IgG1(N297A)/kappa
B8: humanized antibody 3C2-VH6VL5 (antibody, human IgG1, kappa, N297A, V domains shown)
VH: B7 VH with S28T, K38R, R40A, L70M, T87R, F95Y
VL: B7 VL with S22T, N42K, R45K, Y71F, F73L, V85T
notes: Human IgG1(N297A)/kappa
B9: 3C2VH3VL3 (antibody, human IgG1, kappa, N297A, V domains shown)
VH: B7 VH with S28T, F95Y
VL: B7 VL with V85T
notes: humanized 3C2 antibody
B10: 3C2VH2VL3 (antibody, human IgG1, kappa, N297A, V domains shown)
VH: B7 VH with S28T, K38R, R40A, F95Y
VL: B7 VL with V85T
notes: humanized 3C2 antibody
B11: 3C2VH5VL3 (antibody, human IgG1, kappa, N297A, V domains shown)
VH: B7 VH with R67K, V68A
VL: B7 VL with V85T
notes: humanized 3C2 antibody
B12: 3C2VH5VL2 (antibody, human IgG1, kappa, N297A, V domains shown)
VH: B7 VH with R67K, V68A
VL: B7 VL with S22T, N42K, V85T
notes: humanized 3C2 antibody
B13: 3C2VH3VL2 (antibody, human IgG1, kappa, N297A, V domains shown)
VH: B7 VH with S28T, F95Y
VL: B7 VL with S22T, N42K, V85T
notes: humanized 3C2 antibody
B14: 3C2VH4VL2 (antibody, human IgG1, kappa, N297A, V domains shown)
VH: B7 VH
VL: B7 VL with S22T, N42K, V85T
notes: humanized 3C2 antibody
B15: 3C2VH3VL4 (antibody, human IgG1, kappa, N297A, V domains shown)
VH: B7 VH with S28T, F95Y
VL: B7 VL
notes: humanized 3C2 antibody
B16: 3C2VH2VL4 (antibody, human IgG1, kappa, N297A, V domains shown)
VH: B7 VH with S28T, K38R, R40A, F95Y
VL: B7 VL
notes: humanized 3C2 antibody
B17: 3C2VH4VL3 (antibody, human IgG1, kappa, N297A, V domains shown)
VH: B7 VH
VL: B7 VL with V85T
notes: humanized 3C2 antibody
B18: 3C2VH5VL4 (antibody, human IgG1, kappa, N297A, V domains shown)
VH: B7 VH with R67K, V68A
VL: B7 VL
notes: humanized 3C2 antibody
B19: 3C2VH2VL2 (antibody, human IgG1, kappa, N297A, V domains shown)
VH: B7 VH with S28T, K38R, R40A, F95Y
VL: B7 VL with S22T, N42K, V85T
notes: humanized 3C2 antibody

Each binder was assayed against T1, human PD-L1 expressed on HEK293A cells (human, UniProt Q9NZQ7 19-290) (assay: FACS on HEK293A/human PD-L1 cells).
T1 construct: Full-length cDNA expressed stably; also called HEK293A/human PD-L1 cells; HEK293A/human PD-L1
Protocol: (§1) To determine whether the anti-PD-L1 antibodies bound to human, monkey or mouse PD-L1s expressed on HEK293A cells, a cell-based binding assay was performed by FACS using the HEK293A cells stably overexpressing human, monkey and mouse PD-L1s respectively as generated in Example 1. Briefly, 10⁵ HEK293A cells in 100 μl culture medium were seeded onto each well of the 96-well plates, to which added 50 μl serially diluted anti-PD-L1 antibodies. After incubated at 4° C. for 1 hour, plates were washed 3 times with PBST. Then, APC coupled Goat Anti-Mouse IgG (Cat #:405308, BioLegend, US) diluted 500× was added to the plates. After incubation at 4° C. for 1 hour, the plates were washed with PBS for 3 times and then cell fluorescence was monitored using a FACS machine (BD).

T1 sequence (Q9NZQ7 19-290 limits assumed): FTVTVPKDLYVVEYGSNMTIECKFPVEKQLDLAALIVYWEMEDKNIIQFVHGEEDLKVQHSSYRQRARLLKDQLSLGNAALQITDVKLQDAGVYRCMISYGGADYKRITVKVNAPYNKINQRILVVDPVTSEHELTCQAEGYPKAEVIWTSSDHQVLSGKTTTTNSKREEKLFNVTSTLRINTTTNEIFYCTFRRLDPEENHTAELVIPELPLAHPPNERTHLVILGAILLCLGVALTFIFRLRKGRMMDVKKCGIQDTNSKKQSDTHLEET

Binder | EC50
B1 | 0.572 nM
B2 | 1.75 nM

These binders were tested against T2, monkey PD-L1 expressed on HEK293A cells (monkey (cynomolgus), UniProt Q9NZQ7 19-290 (human entry)) (assay: FACS on HEK293A/monkey PD-L1 cells, serially diluted antibody (protocol of Example 4)).
T2 construct: Full-length cDNA expressed stably; also called HEK293A/monkey PD-L1 cells; HEK293A/monkey PD-L1
T2 sequence (Q9NZQ7 other isoform, or with tags, fused parts or gaps limits assumed): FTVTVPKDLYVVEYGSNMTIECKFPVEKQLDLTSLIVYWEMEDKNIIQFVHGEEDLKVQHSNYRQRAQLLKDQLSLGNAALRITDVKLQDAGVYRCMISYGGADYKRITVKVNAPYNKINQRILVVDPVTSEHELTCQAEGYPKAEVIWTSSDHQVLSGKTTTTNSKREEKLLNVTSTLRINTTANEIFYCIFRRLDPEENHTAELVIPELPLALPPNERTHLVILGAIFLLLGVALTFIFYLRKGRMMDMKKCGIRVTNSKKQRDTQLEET

Binder | binding result
B3 | binds
B4 | binds
B5 | binds
B6 | binds

What follows are binders tested against T3, human PD-L1 (ECD)-his (human, UniProt Q9NZQ7 19-238) (assay: SPR (BIAcore 8K), human PD-L1 (ECD)-his coupled to CM5 chip, antibody injected, 1:1 Langmuir model).
T3 construct: Bought protein; it is not tied to the bought construct by a sentence of its own; also called recombinant human PD-L1(ECD)-his; Cat #:10084-H08H, Sino Biological; not shown: His tag
Protocol: (§2) These antibodies were also tested in SPR assays for their binding affinities to human and monkey PD-L1 with BIAcore™ 8K instrument (GE Life Sciences). Briefly, 100-200 response units (RU) of human PD-L1 (ECD)-his protein (Cat #:10084-H08H, Sino Biological, CN) or monkey PD-L1 (ECD)-his protein (Cat #:90251-008H, Sino Biological, CN) were coupled to CM5 biosensor chips (Cat #:BR-1005-30, GE Life Sciences, US), and the un-reacted groups were blocked with 1M ethanolamine Serially diluted antibodies at concentrations ranging from 0.3 μM to 10 μM were injected into the SPR running buffer (HBS-EP buffer, pH7.4, Cat #:BR-1006-69, GE Life Sciences, US) at 30 μL/minute. The binding affinities were calculated with the RUs of blank controls subtracted. The association rate (kₐ) and dissociation rate (kd) were calculated using the one-to-one Langmuir binding model (BIA Evaluation Software, GE Life Sciences), and the equilibrium dissociation constant KD was calculated as the kd/kₐ ratio.

T3 sequence (Q9NZQ7 19-238): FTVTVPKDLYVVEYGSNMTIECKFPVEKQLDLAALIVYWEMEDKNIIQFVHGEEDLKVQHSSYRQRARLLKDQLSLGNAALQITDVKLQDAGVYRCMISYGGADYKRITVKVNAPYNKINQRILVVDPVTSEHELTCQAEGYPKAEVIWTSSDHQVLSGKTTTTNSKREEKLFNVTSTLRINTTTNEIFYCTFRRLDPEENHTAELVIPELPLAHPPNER

Binder | Kd
B7 | 0.307 nM
B8 | 0.433 nM
B4 | 0.518 nM

Each binder was assayed against T4, mouse PD-L1 expressed on HEK293A cells (mouse, UniProt Q9EP73 19-290) (assay: FACS on HEK293A/mouse PD-L1 cells).
T4 construct: Full-length cDNA expressed stably; also called HEK293A/mouse PD-L1 cells; HEK293A/mouse PD-L1
Protocol: as §1

T4 sequence (Q9EP73 19-290 limits assumed): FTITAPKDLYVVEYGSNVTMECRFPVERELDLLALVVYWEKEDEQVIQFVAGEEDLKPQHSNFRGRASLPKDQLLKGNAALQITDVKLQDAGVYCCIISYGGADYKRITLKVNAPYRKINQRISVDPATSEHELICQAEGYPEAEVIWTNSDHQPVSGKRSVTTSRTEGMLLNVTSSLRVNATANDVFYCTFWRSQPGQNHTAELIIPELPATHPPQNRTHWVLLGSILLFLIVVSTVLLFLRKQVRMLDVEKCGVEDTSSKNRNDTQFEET

Binder | binding result
B1 | no binding
B2 | no binding

These binders were tested against T1, human PD-L1 expressed on HEK293A cells (assay: FACS blocking assay: antibody titrated on HEK293A/human PD-L1 cells, then PD1-hFc (200 µg/ml) detected).
Protocol: Briefly, 10⁵ HEK293A/human PD-L1 cells in 100 μl culture medium were seeded onto each well of 96-well plates, to which added 50 μl serially diluted anti-PD-L1 antibodies. After incubated at 4° C. for 1 hour, the plates were washed 3 times with PBST. […] After incubation at 4° C. for 1 hour, the plates were washed with PBST for 3 times, and added with PE coupled Goat Anti-human IgG (Cat #:PAI-86078, Thermofisher, US) diluted 500×. After incubation at 4° C. for 1 hour, the plates were washed with PBST for 3 times and then cell fluorescence was monitored using a FACS machine (BD).

Binder | EC50
B1 | 0.01 nM
B2 | 0.0147 nM

The binders below were run against T2, monkey PD-L1 expressed on HEK293A cells (assay: FACS on HEK293A/monkey PD-L1 cells).
Protocol: as §1

Binder | EC50
B1 | 0.499 nM
B2 | 1.25 nM

The binders below were run against T5, monkey PD-L1 (ECD)-his (monkey, UniProt Q9NZQ7 19-238 (human entry)) (assay: SPR (BIAcore 8K), monkey PD-L1 (ECD)-his coupled to CM5 chip, antibody injected, 1:1 Langmuir model).
T5 construct: Bought protein; also called Cat #:90251-C08H, Sino Biological; not shown: His tag
Protocol: as §2

T5 sequence (Q9NZQ7 other isoform, or with tags, fused parts or gaps): as the sequence (Q9NZQ7 19-238) above, with A33T, A34S, S62N, R68Q, Q82R, F173L, T185A, T192I, H215L counted along it

Binder | Kd
B7 | 0.245 nM
B8 | 0.369 nM
B4 | 0.00807 nM

Each binder was assayed against T1, human PD-L1 expressed on HEK293A cells (assay: FACS on HEK293A/human PD-L1 cells, serially diluted antibody (protocol of Example 4)).

Binder | binding result
B9 | binds
B10 | binds
B11 | binds
B12 | binds
B13 | binds
B14 | binds
B15 | binds
B16 | binds
B17 | binds
B18 | binds
B19 | binds

What follows are binders tested against T1, human PD-L1 expressed on HEK293A cells (assay: FACS on cells, serially diluted antibody (protocol of Example 4); legend paragraph 38 gives panel A as HEK293A/human PD-L1 cells, but the title printed on the sheet reads HEK293A/monkey PDL1).

Binder | binding result
B3 | binds
B5 | binds
B6 | binds

Target: T2, monkey PD-L1 expressed on HEK293A cells
Assay: FACS on HEK293A/monkey PD-L1 cells, serially diluted antibody (protocol of Example 4)
Remark: another data set of the same source

Binder | binding result
B9 | binds
B10 | binds
B11 | binds
B12 | binds
B7 | binds
B13 | binds
B14 | binds
B15 | binds
B16 | binds
B17 | binds
B8 | binds
B18 | binds
B19 | binds
